Common to all, as to experiment: holdup assay
What all share (parameters): key: below the threshold = too weak to quantify, mostly under pKd 3.1 to 4

For experiment [1], the target named is T1, CNKSR1, Q969H4.
T1 sequence (Q969H4 191-295, limits assumed, looked up): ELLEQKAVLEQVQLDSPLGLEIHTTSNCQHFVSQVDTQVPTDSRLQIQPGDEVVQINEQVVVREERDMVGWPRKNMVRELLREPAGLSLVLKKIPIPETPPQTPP

The target of experiment [2] is GIPC3, Q8TF64.
Experiment [3] has as its target LIMK1, P53667.
Experiment [4] deals with LNX1_4, Q8TBB1.
Experiment [5] concerns the target T2, LNX2_1, Q8N448.
T2 sequence (Q8N448 228-328, limits assumed, looked up): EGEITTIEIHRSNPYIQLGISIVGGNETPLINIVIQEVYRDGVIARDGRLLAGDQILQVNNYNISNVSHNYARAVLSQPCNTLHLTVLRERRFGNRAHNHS

The target in experiment [6] is T3, RGS12, O14924.
T3 sequence (O14924 17-108, limits assumed, looked up): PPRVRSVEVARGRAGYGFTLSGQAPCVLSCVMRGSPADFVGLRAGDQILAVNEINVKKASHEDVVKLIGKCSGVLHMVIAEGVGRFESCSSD

Experiment [7] concerns the target Q92614. The following applies: plain residues with an end cap or a label only (N-terminal biotin on a linker: ttds).
Experiment [8] concerns the target Q96JB8. The following applies: plain residues with an end cap or a label only (N-terminal biotin on a linker: ttds).
Experiment [9] addresses O00233. The following applies: plain residues with an end cap or a label only (N-terminal biotin on a linker: ttds).
The target of experiment [10] is O15021. Conditions: plain residues with an end cap or a label only (N-terminal biotin on a linker: ttds).
Experiment [11] concerns the target O60759. Conditions: plain residues with an end cap or a label only (N-terminal biotin on a linker: ttds).
Experiment [12] deals with O75970. Conditions: plain residues with an end cap or a label only (N-terminal biotin on a linker: ttds).
The target in experiment [13] is Q13009. Conditions: plain residues with an end cap or a label only (N-terminal biotin on a linker: ttds).
Experiment [14] addresses Q5TCQ9. The following applies: plain residues with an end cap or a label only (N-terminal biotin on a linker: ttds).
In experiment [15] the target is Q70Z35. Conditions: plain residues with an end cap or a label only (N-terminal biotin on a linker: ttds).
The target in experiment [16] is Q8IUC4. Conditions: plain residues with an end cap or a label only (N-terminal biotin on a linker: ttds).
Experiment [17] has as its target Q8TB45. Conditions: plain residues with an end cap or a label only (N-terminal biotin on a linker: ttds).
The target of experiment [18] is Q8TDM6. The following applies: plain residues with an end cap or a label only (N-terminal biotin on a linker: ttds).
For experiment [19], the target named is Q8TEW0. The following applies: plain residues with an end cap or a label only (N-terminal biotin on a linker: ttds).
For experiment [20], the target named is Q96FS4. The following applies: plain residues with an end cap or a label only (N-terminal biotin on a linker: ttds).
For experiment [21], the target named is Q96SB3. The following applies: plain residues with an end cap or a label only (N-terminal biotin on a linker: ttds).
Experiment [22] has as its target Q9H190. The following applies: plain residues with an end cap or a label only (N-terminal biotin on a linker: ttds).
For experiment [23], the target named is Q9NR12. The following applies: plain residues with an end cap or a label only (N-terminal biotin on a linker: ttds).
In experiment [24] the target is Q9P227. The following applies: plain residues with an end cap or a label only (N-terminal biotin on a linker: ttds).
Experiment [25] has as its target Q9ULJ8. Conditions: plain residues with an end cap or a label only (N-terminal biotin on a linker: ttds).
In experiment [26] the target is Q9UMS6. Conditions: plain residues with an end cap or a label only (N-terminal biotin on a linker: ttds).
For experiment [27], the target named is Q9Y3R0. The following applies: plain residues with an end cap or a label only (N-terminal biotin on a linker: ttds).
Where [28] appears, read: plain residues with an end cap or a label only (N-terminal biotin on a linker: none).
Where [29] appears, read: plain residues with an end cap or a label only (N-terminal biotin on a linker: ttds).

Sequence of GIPC3, Q8TF64 (Q8TF64 107-202): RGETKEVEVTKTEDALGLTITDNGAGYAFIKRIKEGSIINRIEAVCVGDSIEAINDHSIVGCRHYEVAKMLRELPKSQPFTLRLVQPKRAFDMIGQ
Sequence of LIMK1, P53667 (P53667 155-268): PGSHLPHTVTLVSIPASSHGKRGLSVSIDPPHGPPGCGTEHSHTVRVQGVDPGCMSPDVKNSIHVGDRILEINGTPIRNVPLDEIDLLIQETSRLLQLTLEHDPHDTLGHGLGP
Sequence of LNX1_4, Q8TBB1 (Q8TBB1 631-726): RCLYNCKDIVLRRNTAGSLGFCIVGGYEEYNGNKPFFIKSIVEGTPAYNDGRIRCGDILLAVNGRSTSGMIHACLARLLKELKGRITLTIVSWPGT

B1: MERS-E, K9N5R3 (peptide)
chain: DSKPPLPPDEWV
As for B1, the pKd – broadly, the Kd on a negative log10 scale, so that one unit is a factor of ten – is “below the threshold” in experiment [1] (setting [28]); “below the threshold” in [2] (setting [28]); “below the threshold” in experiment [3] (setting [28]); “below the threshold” in [4] (setting [28]); 4.21 in experiment [5] (setting [28]); “below the threshold” in experiment [6] (setting [28]).

B2: CBP, Q92793 (peptide)
chain: TGDTLEKFVEGL
For the molecule B2, the pKd entry was “below the threshold” in experiment [3] (setting [29]); 4.65 in experiment [4] (setting [29]); “below the threshold” in [5] (setting [29]); “below the threshold” in experiment [7]; “below the threshold” in experiment [8].

B3: DGKZ, Q13574 (peptide)
chain: IQREDQETAV
In the case of B3, the pKd result in [1] (setting [29]), in experiment [2] (setting [29]), in experiment [9], in experiment [10], in [11] and in [12] was “below the threshold” each time. In addition, the negative logarithm of the Kd (pKd) result in experiment [13], in experiment [14], in experiment [15], in experiment [16], in experiment [17] and in experiment [18] was “below the threshold” in each case. Moreover, the pKd result in experiment [19], in experiment [7], in [20], in experiment [8], in [21] and in experiment [22] was “below the threshold” each time. Besides, the pKd entry in experiment [23], in experiment [24], in experiment [25], in experiment [26], in experiment [27] and in [6] (setting [29]) was “below the threshold” each time.

B4: DGKK, Q5KSL6 (peptide)
chain: DPLTPSRSQL
Take B4: the pKd was 4.3 in experiment [1] (setting [29]); “below the threshold” in [2] (setting [29]); 4.32 in experiment [3] (setting [29]); “below the threshold” in [9]; “below the threshold” in [10]; “below the threshold” in experiment [11]. In addition, the pKd entry in experiment [12], in [13], in experiment [14], in [15], in [16] and in experiment [17] was “below the threshold” throughout. Further, the negative-log Kd (pKd) entry in experiment [18], in experiment [19], in experiment [7], in experiment [20], in experiment [8] and in experiment [21] was “below the threshold” in each case. Further, the pKd entry in experiment [22], in experiment [23], in [24], in experiment [25], in experiment [26] and in experiment [27] was “below the threshold” in each case. For the same molecule, in experiment [6] (setting [29]), the pKd result was “below the threshold”.

B5: SLCO1C1, Q9NYB5 (peptide)
chain: NYWPGKETQL
Regarding B5, the pKd entry in experiment [1] (setting [29]), in [2] (setting [29]), in experiment [3] (setting [29]), in experiment [9], in [10] and in experiment [11] was “below the threshold” each time. Further, the pKd entry in experiment [12], in experiment [13], in [14], in experiment [15], in experiment [16] and in [17] was “below the threshold” in each case. Moreover, the pKd entry in experiment [18], in experiment [19], in experiment [7], in [20], in experiment [8] and in [21] was “below the threshold” each time. Moreover, the pKd result in experiment [22], in [23], in experiment [24], in experiment [25], in experiment [26] and in experiment [27] was “below the threshold” in each case. Also, the pKd entry in [6] (setting [29]) is recorded as “below the threshold”.

B6: HPV51-E6, P26554 (peptide)
chain: RTRQRNETQV
With B6, the pKd was 4.44 in experiment [1] (setting [29]); “below the threshold” in [2] (setting [29]); “below the threshold” in experiment [3] (setting [29]); “below the threshold” in experiment [9]; “below the threshold” in experiment [11]; “below the threshold” in experiment [12]. The negative logarithm of the Kd (pKd) result in experiment [13], in [14], in [15], in experiment [16], in experiment [17] and in [18] was “below the threshold” throughout. For the same molecule, the pKd result in [19], in [7], in experiment [20], in experiment [8], in [22] and in [23] was “below the threshold” throughout. Further, the pKd entry in experiment [24], in [25], in experiment [26], in experiment [27] and in experiment [6] (setting [29]) was “below the threshold” throughout.

For the origin of these results see article PMC9482650, “Quantitative fragmentomics allow affinity mapping of interactomes” (Nature Communications, 2022).
